Tests used:
[1] = biological target: full length human SIRPα v1 with a small beta-gal fragment (ED) fused to its C-terminal, expressed in K562 … (human, UniProt P78324 31-504); experiment: cell-based or functional assay
[2] = biological target: T1, human SIRPγ stably expressed on 293F cells (human, UniProt Q9P1W8 29-387); experiment: FACS, 293F-hSIRPγ cells
T1 construct: whole, on cells
Description: (§1) All the humanized antibodies as tested were confirmed to retain the similar activity as the parental antibody of 025c to bind to SIRP family members.

[3] = biological target: T2, full length human SIRPα v1 stably expressed on CHOK1 or 293F cells (human, UniProt P78324 31-504); experiment: FACS, CHOK1-hSIRPα v1 cells
T2 construct: whole, on cells; also called CHOK1-human SIRPα v1; CHOK1-hSIRPα v1
Description: as §1

[4] = biological target: Human SIRPα v1 (antigen of the Octet and Biacore affinity measurements) (human, UniProt P78324 31-370, limits assumed); experiment: SPR (Biacore), 1:1 binding model
Experimental: The humanized antibodies were characterized for binding affinity against human SIRPα v1, human SIRPα v2 using Surface Plasmon Resonance technology (Biacore system). The association and dissociation curves were fit with 1:1 binding model, and the Ka/Kd/KD values for each antibody were calculated.

[5] = biological target: T3, human SIRPα v1 ECD recombinant protein (tag not given) (human, UniProt P78324 31-373); experiment: competitive ELISA, mFc-CD47 ECD on coated SIRPα v1 ECD
T3 construct: extracellular domain; also called biotin labeled soluble human SIRPα v1 ECD recombinant protein; ELISA microplate coated human SIRPα v1 ECD
Experimental: (§2) Competitive ELISA assay was used to determine whether the purified chimeric antibodies can block CD47 and SIRPα interaction. Briefly, antibody and mFc tagged human CD47 ECD recombinant protein were co-incubated with ELISA microplate coated human SIRPα v1 ECD (FIGS. 6A and 6B) or human SIRPα v2 ECD (FIGS. 7A and 7B) recombinant protein. After washing, HRP labeled anti-mouse Fc 2nd antibody (Sigma) was added and incubated at 37° C. for 1 hour. Then, 100 μl/well of TMB solution (Biotechnology) was added. After incubation for 15 minutes at room temperature, the reaction was stopped by the addition of 50 μl of 1N HCl. OD 450 nm was read. Blocking ratio was determined by blockade of human CD47 ECD recombinant protein binding to ELISA microplate coated human SIRPα ECD recombinant protein. Other than 005, all antibodies as tested can block interaction between human CD47 and different human SIRPα variants.
(§3) The humanized antibodies were tested for the ability to block CD47 and SIRPα interaction with competitive ELISA assay (refer to methods described in Example 4.2.3.).

[6] = biological target: T4, human SIRPα v2 ECD recombinant protein (tag not given) (human); experiment: competitive ELISA, mFc-CD47 ECD on coated SIRPα v2 ECD
T4 construct: extracellular domain; also called ELISA microplate coated human SIRPα v2 ECD
Experimental: as §2, §3

[7] = biological target: T5, human SIRPβ stably expressed on CHOK1 cells (human, UniProt O00241 30-398); experiment: FACS, CHOK1 cells stably expressing human SIRPβ
T5 construct: whole, on cells; also called CHOK1-human SIRPB; CHOK1-hSIRPβ
Description: as §1

[8] = biological target: T5, human SIRPβ stably expressed on CHOK1 …; experiment: FACS, CHOK1-hSIRPβ cells (columns c6 and c7 read as swapped)
Description: as §1

[9] = biological target: T2, full length human SIRPα v1 stably …; experiment: competitive FACS, mFc-CD47 ECD on CHOK1-human SIRPα v1 cells
Experimental: Competitive FACS assay was also set up to further compare the blocking activity of the humanized antibodies and reference antibodies. Briefly antibody and mFc tagged human CD47 ECD recombinant protein were co-incubated with CHOK1 cells stably expressing human SIRPα v1 (FIG. 16A) or human SIRPα v2 (FIG. 16B). After washing, dye labeled anti-mouse Fc 2nd antibody (Sigma) was added and incubated at 37° C. for 1 hour. Fluorescence intensity was detected. Blocking ratio was determined by blockade of human CD47 ECD recombinant protein binding to SIRPα expressed CHOK1 cells. […] In particular, HEFLB doesn't work at all for human SIRPα v2.

full length human SIRPα v1 with a small beta-gal fragment (ED) fused to its C-terminal, expressed in K562 …, sequence (P78324 31-504): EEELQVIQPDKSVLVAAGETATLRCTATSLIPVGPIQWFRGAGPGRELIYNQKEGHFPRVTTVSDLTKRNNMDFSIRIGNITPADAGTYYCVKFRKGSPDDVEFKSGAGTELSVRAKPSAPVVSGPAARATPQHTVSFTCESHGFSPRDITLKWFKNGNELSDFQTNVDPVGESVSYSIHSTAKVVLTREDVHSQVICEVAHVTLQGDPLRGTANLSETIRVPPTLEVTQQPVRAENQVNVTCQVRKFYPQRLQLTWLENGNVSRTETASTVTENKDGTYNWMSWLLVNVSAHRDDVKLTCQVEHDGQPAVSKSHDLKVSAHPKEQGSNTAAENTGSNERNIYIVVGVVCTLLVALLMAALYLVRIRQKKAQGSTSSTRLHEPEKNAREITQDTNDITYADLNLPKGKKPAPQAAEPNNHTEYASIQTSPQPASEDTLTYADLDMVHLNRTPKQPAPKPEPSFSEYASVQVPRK
T2 sequence (P78324 31-504): as above
T1 sequence (Q9P1W8 29-387): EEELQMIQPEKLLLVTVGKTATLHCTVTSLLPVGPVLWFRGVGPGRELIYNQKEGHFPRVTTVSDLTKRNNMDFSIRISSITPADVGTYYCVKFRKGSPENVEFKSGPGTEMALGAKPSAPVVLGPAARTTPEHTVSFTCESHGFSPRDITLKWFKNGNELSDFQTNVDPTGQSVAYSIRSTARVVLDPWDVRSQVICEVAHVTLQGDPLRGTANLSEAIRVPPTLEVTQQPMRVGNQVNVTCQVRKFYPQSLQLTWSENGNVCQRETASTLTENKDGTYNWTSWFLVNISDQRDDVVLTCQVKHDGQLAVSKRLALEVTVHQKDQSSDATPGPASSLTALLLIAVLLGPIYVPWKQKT
Human SIRPα v1 (antigen of the Octet and Biacore affinity measurements), sequence (P78324 31-370 limits assumed): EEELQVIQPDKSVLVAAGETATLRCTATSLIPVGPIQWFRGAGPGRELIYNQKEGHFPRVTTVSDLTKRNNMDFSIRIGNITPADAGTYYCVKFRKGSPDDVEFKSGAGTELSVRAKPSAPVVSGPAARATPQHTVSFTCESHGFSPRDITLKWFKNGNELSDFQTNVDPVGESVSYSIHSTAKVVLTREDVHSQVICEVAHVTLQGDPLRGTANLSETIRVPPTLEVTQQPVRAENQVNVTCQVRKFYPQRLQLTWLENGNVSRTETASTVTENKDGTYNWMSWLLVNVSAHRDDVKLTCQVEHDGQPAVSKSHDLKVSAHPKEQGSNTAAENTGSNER
T3 sequence (P78324 31-373): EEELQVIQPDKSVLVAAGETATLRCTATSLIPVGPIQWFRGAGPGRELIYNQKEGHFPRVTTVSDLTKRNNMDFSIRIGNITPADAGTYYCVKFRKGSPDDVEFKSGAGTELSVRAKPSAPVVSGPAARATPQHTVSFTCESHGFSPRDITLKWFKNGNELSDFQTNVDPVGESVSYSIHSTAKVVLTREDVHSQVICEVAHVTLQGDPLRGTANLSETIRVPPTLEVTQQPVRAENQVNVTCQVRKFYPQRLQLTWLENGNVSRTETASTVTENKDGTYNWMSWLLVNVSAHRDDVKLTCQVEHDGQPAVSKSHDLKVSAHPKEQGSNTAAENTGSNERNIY
T5 sequence (O00241 30-398): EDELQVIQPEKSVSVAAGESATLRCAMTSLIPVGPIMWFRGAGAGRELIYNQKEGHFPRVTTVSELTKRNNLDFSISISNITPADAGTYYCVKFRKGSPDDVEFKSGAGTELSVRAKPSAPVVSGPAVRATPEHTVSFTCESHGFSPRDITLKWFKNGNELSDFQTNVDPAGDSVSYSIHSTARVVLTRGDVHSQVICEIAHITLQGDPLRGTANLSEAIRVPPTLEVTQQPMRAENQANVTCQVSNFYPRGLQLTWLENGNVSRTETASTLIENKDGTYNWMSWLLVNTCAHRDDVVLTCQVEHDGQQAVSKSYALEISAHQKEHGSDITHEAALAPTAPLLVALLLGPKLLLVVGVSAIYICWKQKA

Binder | SHP-1 recruitment blocking, IC50 [1] | SHP-1 recruitment blocking, TOP blocking (%) [1] | EC50 [2] | TOP MFI [2] | EC50 [3] | TOP MFI [3] | Kd [4] | koff [4] | kon [4] | IC50 [5] | TOP blocking (%) [5] | IC50 [6] | TOP blocking (%) [6] | EC50 (read off the curve) [7] | EC50 [8] | TOP MFI [8] | IC50 [9] | TOP blocking (%) [9]
hu025.021 (antibody, V domains shown, Humanized 025; also called hu025.21) VH: EVQLVQSGAEVKKPGATVKISCKVSGFNIKDYYMHWVQQAPGKGLEWIGRIDPEDAETKYAPKFQGRVTITADTSTNTAYMELSSLRSEDTAVYYCDRGLAYWGQGTLVTVSS VL: EIVLTQSPATLSLSPGERATLSCSASSSVSSSYLYWYQQKPGQAPKLWIYSTSNLASGIPARFSGSGSGTDYTLTISSLEPEDFAVYYCHQWSSYPYTFGQGTKLEIK | 0.1 nM | 86.3% | 0.21 nM | 22100 MFI | 1.08 nM | 56400 MFI | 3.05 nM | 0.00183 s⁻¹ | 599000 M⁻¹ s⁻¹ | 2.07 nM | 97.7% | 1.96 nM | 98.3% | ~0.7 nM | 0.68 nM | 72000 MFI |  | 
hu025.060 (antibody, V domains shown, Humanized 025; also called hu025.60) VH: EVQLVQSGAEVKKPGATVKISCKASGFNIKDYYMHWVQQAPGKGLEWIGRIDPEDAETKYAPKFQGRVTITADTSTNTAYMELSSLRSEDTAVYYCDRGLAYWGQGTLVTVSS VL: EIVLTQSPATLSLSPGERATLSCSASSSVSSSYLYWYQQKPGQAPKLWIYSTSNLASGIPARFSGSGSGTDFTLTISSLEPEDFAVYYCHQWSSYPYTFGQGTKLEIK | 0.09 nM | 87.5% | 0.22 nM | 22200 MFI | 0.84 nM | 61500 MFI | 1.99 nM | 0.00111 s⁻¹ | 560000 M⁻¹ s⁻¹ | 2.15 nM | 95.2% | 1.88 nM | 97% | ~0.7 nM | 0.75 nM | 71200 MFI | 0.53 nM | 98.7%

The remaining lines, values ahead:

SHP-1 recruitment blocking, IC50 [1] | SHP-1 recruitment blocking, TOP blocking (%) [1] | EC50 [2] | TOP MFI [2] | EC50 [3] | TOP MFI [3] | Kd [4] | koff [4] | kon [4] | IC50 [5] | TOP blocking (%) [5] | IC50 [6] | TOP blocking (%) [6] | EC50 (read off the curve) [7] | EC50 [8] | TOP MFI [8] | IC50 [9] | TOP blocking (%) [9] | Binder
0.1 nM | 85.5% | 0.2 nM | 22400 MFI | 1.13 nM | 57800 MFI | 2.67 nM | 0.00172 s⁻¹ | 643000 M⁻¹ s⁻¹ | 2.6 nM | 97.2% | 2.07 nM | 98% | ~0.7 nM | 0.66 nM | 72800 MFI | 0.57 nM | 97.7% | hu025.023 (antibody, V domains shown, Humanized 025; also called hu025.23) VH: EVQLVQSGAEVKKPGATVKISCKVSGFNIKDYYMHWVQQAPGKGLEWIGRIDPEDAETKYAPKFQGRVTITADTSTNTAYMELSSLRSEDTAVYYCDRGLAYWGQGTLVTVSS VL: EIVLTQSPATLSLSPGERATLSCSASSSVSSSYLYWYQQKPGQAPKLWIYSTSNLASGIPARFSGSGSGTDFTLTISSLEPEDFAVYYCHQWSSYPYTFGQGTKLEIK
0.19 nM | 84.5% | 0.21 nM | 20900 MFI | 0.99 nM | 53800 MFI |  |  |  | 2.22 nM | 97.2% | 1.88 nM | 98.3% | ~0.7 nM | 0.8 nM | 69700 MFI |  |  | hu025.033 (antibody, V domains shown, Humanized 025) VH: EVQLVQSGAEVKKPGATVKISCKVSGFNIKDYYMHWVQQAPGKGLEWIGRIDPEDAETKYAPKFQGRVTITADTSTDTAYMELSSLRSEDTAVYYCDRGLAYWGQGTLVTVSS VL: EIVLTQSPATLSLSPGERATLSCSASSSVSSSYLYWYQQKPGQAPKLWIYSTSNLASGIPARFSGSGSGTDYTLTISSLEPEDFAVYYCHQWSSYPYTFGQGTKLEIK
0.1 nM | 78.8% | 0.2 nM | 22700 MFI | 1.05 nM | 59400 MFI | 2.29 nM | 0.00123 s⁻¹ | 536000 M⁻¹ s⁻¹ | 2.48 nM | 97.1% | 2.03 nM | 98.3% | ~0.7 nM | 0.67 nM | 73100 MFI |  |  | hu025.059 (antibody, V domains shown, Humanized 025; also called hu025.59) VH: EVQLVQSGAEVKKPGATVKISCKASGFNIKDYYMHWVQQAPGKGLEWIGRIDPEDAETKYAPKFQGRVTITADTSTNTAYMELSSLRSEDTAVYYCDRGLAYWGQGTLVTVSS VL: EIVLTQSPATLSLSPGERATLSCSASSSVSSSYLYWYQQKPGQAPKLWIYSTSNLASGIPARFSGSGSGTDYTLTISSLEPEDFAVYYCHQWSSYPYTFGQGTKLEIK

— US20250270315A1 (ELPISCIENCE SUZHOU BIOPHARMA, published 2025)
